Source: US20170298113A1 (TEL HASHOMER MEDICAL RESEARCH INFRASTRUCTURE AND SERVICES, published 2017)
*1 amine or outer side, *2 acyl side, *3 side chain or, on linkers, in order; H or OH if unused. Bridges are numbered along the chain shown (N, C = ends). Primed or numbered codes have the meaning given here. [ ]: non-standard residue; d: D form. N(2-mercaptoethyl)Gly = O=C(CN(CCS[*:3])[*:1])[*:2]; FITC′ = fluorescein isothiocyanate; GABA = NCCCC(=O)O

What was measured:
[1] = target: human somatostatin receptor subtype SSTR2 (human) (UniProt P30874); test: FACS, transfected HEK-293 cells; normalised to Compound 1
[2] = target: human somatostatin receptor subtype SSTR1 (human) (UniProt P30872); test: as above
[3] = target: human somatostatin receptor subtype SSTR5 (human) (UniProt P35346); test: as above
[4] = target: human somatostatin receptor subtype SSTR4 (human) (UniProt P31391); test: as above
[5] = target: human somatostatin receptor subtype SSTR3 (human) (UniProt P32745); test: as above
[6] = target: human somatostatin receptor subtype SSTR2 (human) (UniProt P30874); test: FACS, transfected HEK-293 cells; row normalised to highest
[7] = target: human somatostatin receptor subtype SSTR1 (human) (UniProt P30872); test: as above
[8] = target: human somatostatin receptor subtype SSTR5 (human) (UniProt P35346); test: as above
[9] = target: human somatostatin receptor subtype SSTR4 (human) (UniProt P31391); test: as above
[10] = target: human somatostatin receptor subtype SSTR3 (human) (UniProt P32745); test: as above
[11] = target: human somatostatin receptor subtype SSTR2 (human) (UniProt P30874); test: FACS, transfected HEK-293 cells
[12] = target: human somatostatin receptor subtype SSTR1 (human) (UniProt P30872); test: FACS, transfected HEK-293 cells
[13] = target: human somatostatin receptor subtype SSTR5 (human) (UniProt P35346); test: FACS, transfected HEK-293 cells
[14] = target: human somatostatin receptor subtype SSTR4 (human) (UniProt P31391); test: FACS, transfected HEK-293 cells
[15] = target: human somatostatin receptor subtype SSTR3 (human) (UniProt P32745); test: FACS, transfected HEK-293 cells
[16] = target: T1, human somatostatin receptor subtype SSTR5 (human, UniProt P35346 1-364); test: FACS, transfected HEK-293 cells; row normalised to highest
T1 construct: whole, on cells; also called SSTRS
Description: (§1) Biological activity assessment of the compounds to define a specific affinity to each subtype was performed by FACS and fluorescence imaging methods.
(§2) The transfection process is illustrated in FIG. 1. The transient transfection process was carried out before each experiment. Briefly, HEK cells were cultured in standard cell growth conditions. For testing, the cells were transferred into 96-well plates. The tested compounds were dissolved in DMSO and then diluted in a buffer solution to a final DMSO concentration of 5% as a composition according to the teachings herein. Various amounts of the thus-prepared compositions were added to the cells in medium in the 96-well plates and allowed to incubate for between 1 and 24 hours. Binding was determined using fluorescent microscopy and FACS.
(§3) The cells were incubated for additional time intervals ranging from 0.5-24 hr. At the end of the incubation period, supernatant was discarded and the cells were washed twice with cold PBS. The plates were examined using IX81 inverted microscope (Olympus, Japan) equipped with PR71 digital camera. Additionally, a FACS assay was used for quantitative analysis.

[17] = target: T2, human somatostatin receptor subtype SSTR4 (human, UniProt P31391 1-388); test: as above
T2 construct: whole, on cells
Description: as §1, §2, §3

[18] = target: T3, human somatostatin receptor subtype SSTR3 (human, UniProt P32745 1-418); test: as above
T3 construct: whole, on cells
Description: as §1, §2, §3

[19] = target: T4, human somatostatin receptor subtype SSTR2 (human, UniProt P30874 1-369); test: as above
T4 construct: whole, on cells
Description: as §1, §2, §3

[20] = target: T5, human somatostatin receptor subtype SSTR1 (human, UniProt P30872 1-391); test: as above
T5 construct: whole, on cells
Description: as §1, §2, §3

[21] = target: T1, human somatostatin receptor subtype …; test: FACS, transfected HEK-293 cells; normalised to Compound 1
Description: as §1, §2, §3

[22] = target: T2, human somatostatin receptor subtype …; test: as above
Description: as §1, §2, §3

[23] = target: T3, human somatostatin receptor subtype …; test: as above
Description: as §1, §2, §3

[24] = target: T4, human somatostatin receptor subtype …; test: as above
Description: as §1, §2, §3

[25] = target: T5, human somatostatin receptor subtype …; test: as above
Description: as §1, §2, §3

[26] = target: T1, human somatostatin receptor subtype …; test: FACS, transfected HEK-293 cells
Description: as §1, §2, §3

[27] = target: T2, human somatostatin receptor subtype …; test: FACS, transfected HEK-293 cells
Description: as §1, §2, §3

[28] = target: T3, human somatostatin receptor subtype …; test: FACS, transfected HEK-293 cells
Description: as §1, §2, §3

[29] = target: T4, human somatostatin receptor subtype …; test: FACS, transfected HEK-293 cells
Description: as §1, §2, §3

Sequence of human somatostatin receptor subtype SSTR1 (human) (P30872 whole entry): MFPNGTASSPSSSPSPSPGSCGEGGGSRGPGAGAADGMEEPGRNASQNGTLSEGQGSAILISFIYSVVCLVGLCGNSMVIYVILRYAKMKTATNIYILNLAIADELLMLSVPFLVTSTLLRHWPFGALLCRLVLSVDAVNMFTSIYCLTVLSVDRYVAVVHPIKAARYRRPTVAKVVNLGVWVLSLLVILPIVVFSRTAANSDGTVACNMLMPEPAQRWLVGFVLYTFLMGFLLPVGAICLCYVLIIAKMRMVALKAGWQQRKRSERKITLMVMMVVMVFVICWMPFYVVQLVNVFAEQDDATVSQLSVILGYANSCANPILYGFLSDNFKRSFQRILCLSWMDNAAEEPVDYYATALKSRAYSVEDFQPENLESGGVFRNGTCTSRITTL
T1 sequence (P35346 whole entry): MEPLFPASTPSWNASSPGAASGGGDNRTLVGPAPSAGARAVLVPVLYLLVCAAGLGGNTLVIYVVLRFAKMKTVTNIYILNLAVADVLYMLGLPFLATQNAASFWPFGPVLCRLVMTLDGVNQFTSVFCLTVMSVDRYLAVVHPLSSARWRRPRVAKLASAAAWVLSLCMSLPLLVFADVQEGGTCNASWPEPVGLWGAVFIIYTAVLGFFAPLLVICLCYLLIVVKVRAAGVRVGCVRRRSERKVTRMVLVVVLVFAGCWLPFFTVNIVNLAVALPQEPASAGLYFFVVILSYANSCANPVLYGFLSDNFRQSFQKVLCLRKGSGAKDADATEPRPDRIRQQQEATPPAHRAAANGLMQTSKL
Sequence of human somatostatin receptor subtype SSTR5 (human) (P35346 whole entry): as above
T4 sequence (P30874 whole entry): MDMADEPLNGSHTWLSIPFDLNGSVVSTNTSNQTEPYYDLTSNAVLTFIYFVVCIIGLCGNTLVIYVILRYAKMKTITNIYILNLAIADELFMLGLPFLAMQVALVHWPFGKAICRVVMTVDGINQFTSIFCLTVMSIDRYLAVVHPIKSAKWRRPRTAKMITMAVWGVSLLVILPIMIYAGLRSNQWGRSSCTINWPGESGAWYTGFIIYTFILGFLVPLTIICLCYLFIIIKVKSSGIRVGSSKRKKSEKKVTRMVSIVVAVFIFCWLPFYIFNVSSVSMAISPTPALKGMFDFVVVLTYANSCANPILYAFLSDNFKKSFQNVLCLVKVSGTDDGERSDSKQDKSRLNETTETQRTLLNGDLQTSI
Sequence of human somatostatin receptor subtype SSTR2 (human) (P30874 whole entry): as above
Sequence of human somatostatin receptor subtype SSTR3 (human) (P32745 whole entry): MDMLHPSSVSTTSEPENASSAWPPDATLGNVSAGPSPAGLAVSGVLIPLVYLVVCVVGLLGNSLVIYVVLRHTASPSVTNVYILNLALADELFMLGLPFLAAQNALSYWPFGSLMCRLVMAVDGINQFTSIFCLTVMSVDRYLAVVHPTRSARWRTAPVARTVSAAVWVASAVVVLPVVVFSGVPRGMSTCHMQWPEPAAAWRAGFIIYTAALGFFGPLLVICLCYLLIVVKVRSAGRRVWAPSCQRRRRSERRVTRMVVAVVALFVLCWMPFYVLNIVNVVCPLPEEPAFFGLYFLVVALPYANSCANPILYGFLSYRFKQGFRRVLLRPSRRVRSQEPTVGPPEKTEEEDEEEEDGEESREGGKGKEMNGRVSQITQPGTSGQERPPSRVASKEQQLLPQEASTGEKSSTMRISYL
T3 sequence (P32745 whole entry): as above
Sequence of human somatostatin receptor subtype SSTR4 (human) (P31391 whole entry): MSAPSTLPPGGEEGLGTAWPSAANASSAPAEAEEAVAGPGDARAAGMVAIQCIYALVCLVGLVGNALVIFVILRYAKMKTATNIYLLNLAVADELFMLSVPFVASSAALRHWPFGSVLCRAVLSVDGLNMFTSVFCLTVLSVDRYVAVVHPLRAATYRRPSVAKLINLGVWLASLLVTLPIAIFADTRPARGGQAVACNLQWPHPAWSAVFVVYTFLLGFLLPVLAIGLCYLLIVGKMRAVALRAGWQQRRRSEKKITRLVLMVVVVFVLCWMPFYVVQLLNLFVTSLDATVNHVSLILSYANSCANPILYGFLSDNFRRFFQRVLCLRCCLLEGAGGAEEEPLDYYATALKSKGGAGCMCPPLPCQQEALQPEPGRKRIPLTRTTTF
T2 sequence (P31391 whole entry): as above
T5 sequence (P30872 whole entry): as the sequence (P30872 whole entry) above

Binding affinity relative to Compound 1 (% of Compound 1) [1] | Binding affinity relative to Compound 1 (% of Compound 1) [2] | Binding affinity relative to Compound 1 (% of Compound 1) [3] | Binding affinity relative to Compound 1 (% of Compound 1) [4] | Binding affinity relative to Compound 1 (% of Compound 1) [5] | Adjusted binding affinity [6] | Adjusted binding affinity [7] | Adjusted binding affinity [8] | Adjusted binding affinity [9] | Adjusted binding affinity [10] | Relative binding affinity [11] | Relative binding affinity [12] | Relative binding affinity [13] | Relative binding affinity [14] | Relative binding affinity [15] | Binder | further results
77 | 133 | 26 | 40 | 79 | 0.37 | 0.3 | 0.56 | 0.67 | 1 | 5% | 4% | 7.5% | 9% | 13.5% | {FITC′-GABA}-[dF]CFW[dW]RTF[N(2-mercaptoethyl)Gly]-NH2 (disulfide 2-9) [Compound 15] | 
123 | 100 | 4 | 36 | 141 | 0.33 | 0.13 | 0.4 | 0.33 | 1 | 4.3% | 3.6% | 9.3% | 13.3% | 15.7% | {FITC′-GABA}-[dF]CYW[dW]KTF[N(2-mercaptoethyl)Gly]-NH2 (disulfide 2-9) [Compound 4] | 
 |  |  |  |  |  |  |  |  |  |  |  |  |  |  | {FITC′-GABA}-CRF[dW]KTF[N(2-mercaptoethyl)Gly]-NH2 (disulfide 1-8, Synthetic cyclic peptide-fluorescent agent conjugate; also called 21) [Compound 9] | Adjusted binding affinity [16]: 1; Adjusted binding affinity [17]: 0.75; Adjusted binding affinity [18]: 0.7; Adjusted binding affinity [19]: 0.5; Adjusted binding affinity [20]: 0; Binding affinity relative to Compound 1 [21]: 70 % of Compound 1; Binding affinity relative to Compound 1 [22]: 67 % of Compound 1; Binding affinity relative to Compound 1 [23]: 82 % of Compound 1; Binding affinity relative to Compound 1 [24]: 154 % of Compound 1; Binding affinity relative to Compound 1 [25]: 0 % of Compound 1; Relative binding affinity [26]: 20%; Relative binding affinity [27]: 15%; Relative binding affinity [28]: 14%; Relative binding affinity [29]: 10%
